Experiment: soluble on expression in E. coli; label from the status in PepcDB or PDB records
For “MLPERVLEILREMKRERIKGASWLAKKGAEAFLTLAEELDESLLEDAIMELREEVVKVNPSMASLYNLARFIPVTNRRDILKSRALEFLRRMEEAKRELASIGAQLIDDGDVIITHSFSSTVLEIIRTAKERKKRFKVILTESSPDYEGLHLARELEFSGIEFEVITDAQMGLFCREASIAIVGADMITKDGYVVNKAGTYLLALACHENAIPFYVAAETYKFHPTLKSGDVMLMERDLIRGNVRIRNVLFDVTPWKYVRGIITELGIVIPPRDIQLEHHHHHH”, the “soluble on expression in E. coli” value was “not soluble”.
For “MLSTNNITMQFGSKPLFENISVKFGGGNRYGLIGANGCGKSTFMKILGGDLVPSGGNVFLDPNERLGKLRQDQFAFENNTVLDTVIMGHGELWEVKEERDRIYAMAEMSEEDGYKVADLEVAYGEMDGYSAEARAGELLLGVGIPVEQHYGLMSEIAPGWKLRVLLAQALFSDPEILLLDEPTNNLDIDTIRWLEQVLNERNSTMIIISHDRHFLNMVCTHMADLDYGELRVYPGNYDEYMTAATQARERLLSDNAKKKAQISELQSFVSRFSANASKSKQATSRARQIDKIQLDEVKASSRQNPFIRFDQDRKLFRNALEVEMLTKGFDNGPLFKNLTLRLEVGEKVAILGPNGIGKSTLLKTLLGEYESDAGTVKWSENSKIGYYAQDHASDFDIDLTVFDWMSQWKQEKDDEQAVRSVLGRLLFSQDDIKKKVSVLSGGEKGRMLFGKLMMQRPNILVMDEPTNHLDMESIESLNMALEMYEGTLIFVSHDREFVSSLATRVIEMTPNKLIDFTGNYEDYLSSQGIHS”, the “soluble on expression in E. coli” value was “not soluble”.
In the case of “MGSDKIHHHHHHMHMLLSERISLMIRGGYVGRNPNTGKLQQHLQNGYERLQKGDLDAKRFDGAESTAHSMAIIGCSGSGKTTSLRRILNTYPQVIFHPTLNRHQIVYLKIDCSHDGSLKELCLNFFRAIDKVIGSNYEKKYGMKRHGVETMLALMAQTANMFALGLLVIDEIQHLSRAKSGGSEKMLNFFVTMSNTIGIPVLFVGTPKARDIFDLDLRSSRRAAGLGSIFWNPISQYLPDQKSQNPEWIAFTNTLWKLQYLQKRDPILSDEIRDTWFDLSQGILDIVVKLFILAQLRALATGAEKITVELLKRVYEDELKLVHPMLSALRSGIPERIAQFSDLAVPDMDKKIIHLIQKISASTVESEEDRALKQLSNDDQRRIYLMLKDEFPSDSIIFAIQKIVELKPQISRQQLLASIIQAMETDNTTSQVTVTKKKNQRIGLKQWNELEDTDLRHIFSMNSTSPESIYTQLNHHGLILQMSDLLS”, the “soluble on expression in E. coli” value is reported as “not soluble”.
With “MQKSVLITGCSSGIGLDSALELKRQGFQILAGCRKPDDVARMNSMGFTGVLIDLDSPESVDRAADEVIALTDNRLYGIFNNAGYGVYGPLSTISREQMEQQFSSNFFGAHQLTMRLLPAMLPHGEGRIVMTSSVMGLISTPGRGAYAASKYALEAWSDALRMELRHTGIKVSLIEPGPIRTRFTDNVNQTQRDKPVENPGIAARFTRDPDAVVAKVRHAFASDKPRLRYPVTLVTWAVMALKRILPGRMLDKILQS” the “soluble on expression in E. coli” value was “not soluble”.
With “MGSDKIHHHHHHMNGLFVLAYAITNLHPGAGRGYGIVDMPVQRDQMGYPIIYSSAFKGPLKALCAGDAINDHGRIDCKKKGECCCLFGSEPEEEESSKGMLNVMDLPLFSVPAPTFDGFVQVTTNYLIDRARNIFEAISHINGYLGSLGNEIKALLDAQGNKSVEVYDTEAKVVNFDPSSFKLLSSLPLFNNRLAISDDKRVIDKSLIIYTRNRLNLLTKVVEEGGLWSEEYIPMGSIFIGGMIIDNVRNKFCDELSKISCDSRLFLHHFSRIFNADKISEDVYLFYLNIGGKESIGKGLMKVFIGV” the “soluble on expression in E. coli” value was “not soluble”.
For “MKDMKTIEGIIVVTTPEIPGYKVVEVKGVARGGTVRATHIGRDIMALLRNLKGGEVKEYTEMMAEAREEALRRMALHAKELGANAVVNFRFATSNLGGSMAEIYAYGTAVVVERVEK”, the “soluble on expression in E. coli” value was “soluble”.
In the case of “MSLVKTRILIISDTHGSKPKPKSDNSPSTEDELNQEDVTKVITGWRDPLPEADVVIHCGDLTKRTTIPEFEQTFSVLRSIKAPLKLAIAGNHDTALDEEHWVNKYGGSKETIDKVKKIVREAETDGVKYLPEGVHEFTLANGALLKVYASPWTPAYGGWAFQYKNGHDFNIPPGMDVAVTHGPPRGILDFAGRAGTHAGCPQLLAAVARAKPKIHCFGHIHEAWGMHHVTWDGDEIDLARSQYRGLKGLRPNRVTQGKETARMTREKLIEMSKQRAVRLDLTQGINRSIAGKQTLFVNAAIMSIRYRPVQLPWIIDVDLKAREGHHHHHH”, the “soluble on expression in E. coli” value is reported as “soluble”.
In the case of “MLLRFIIGLSSVLLVTGLFNPLLPTLGDYLLTDQQVQKYFSVAGPSNLAIGTCNSVPFASAQAGFASSVGLAPTTTWREANILTNATIGMIDQGMDQLAAVCQARQQFVQTLGAAYDTCTDRFYLISLGNTDWWNVMQYTHLMKHLEFICSTGFDVYQSNIDCIRKGETTDGNQYRACFYKFNATVNANPNNFCGATETFIGCIKDFFDTECNLYVGWMQCELERIGFAYDCYGLSC”, the “soluble on expression in E. coli” value is reported as “not soluble”.
With “MGSDKIHHHHHHMNKAERQNLIITAIQQNKKMTALELAKYCNVSKRTILRDIDDLENQGVKIYAHYGKNGGYQIQQAQSKIALNLSETQLSALFLVLNESQSYSTLPYKSEINAIIKQCLSLPQTRLRKLLKRMDFYIKFDDTQHMTLPMLFSDILIYCTERNVMLVDHRVDDNIKAENVIFIGLLCKHGHWHAVIYDIAQDKTAELEIENIIDISYSFGKTIQTRDISIDNYHQFLNPIDS” the “soluble on expression in E. coli” value was “not soluble”.
In the case of “MEVKLPELGDNVTQATVVGVLVKEGDRVEPGQPLLELETDKAVVEVPAEAGGVVKRVLVKVGDEVRPGQPFLELAEAEGGAEAPPLKAEERPEAPAPKAEEAPRPAPKEAPPAPQEAPSERRLIPAAPSIRRLARELGVDLTRLRGTGLAGRITEEDVRRAAGLGEAAPAALPAAPAPRLPDFTKWGPVRREPMSGVRKATVRSMSQAWAQVPMVTHFDEADVTELEALRKQYAKKAEEKGFRLTLTAFLLKALALTLKAFPKFNASLDVEAQEIVYKDYIHIGVAVDTPHGLLVPVIRDVDRKGVLRLAEELQEISQRARERKLSPEEMQGATFSLSNLGGIGGTGFTPIVNWPEVAILGVSRSQMKPLWDPGKEAFVPRLVMPFSLTYDHRLIDGADAARFCRHLAGILEDPLGLALA”, the “soluble on expression in E. coli” value is reported as “soluble”.
With “MSLAEITDRDTALFESGIKLGALYHQFVGSPVNLSTAGSLEAAIRDSISLQPCVQSITVAIDREMVRGRINDFGYCELEGRMLGVEAVIRYGTAVVHVGMRYDAEMDYPMMSVQQIEQIGQIRQIEQDKQTEQIRQIRQTEVGEGHHHHHH” the “soluble on expression in E. coli” value was “soluble”.
In the case of “MGSDKIHHHHHHMTYDYTEPTLSAKGQRMRDILADYIALISHRLPDDVTAKLEELSKIEVDPLQKLVYDTMMENQLLANKLKRPSCQDTGALQFFIKCGAQFPLLGELNQILKDAVYRGTKKAPLRHNAVQTFDEYNTGMNIGDGIPSIFLQVDGNGTDISMYVYMAGGGCTLPGAAKVLMPGEGYEGVVRFVMDRMTSYGINACPPLLVGVGVATSVETAALNSKLALMRRVDSENPNANAAKLEHLLEDGINHIGLGPQGFGGQKSVMGVNVENTARHPSTIGVAVSTGCWSHRRGLINFDADLNYDLPLNKGVELS”, the “soluble on expression in E. coli” value is reported as “not soluble”.
For “MAKKKNVSVISVEKPTWFPLTDETGAFPVYGAPITIGTAVSIKPDVTTETTPDYGDSVVQDQYVAFGGAEVTLETNGYQNEVLAEITGGKKLKGGVLRSADDIASDGAFAYRRRKSNGKYRYTIFYKGKFALTSDETSTLEGSSVSYTHPEWTGSFVDVPGLGYMYSVDEDDEGVDLEMIKNWFTEVMDPRKENTTAVTGVTLDQTELNLKVGQTATLTPTITPDNASNKKYQFRSESEAIGTVTPIQGKVTAVGEGTTEIVVTTEDGNFTAKCTLNVTTAD”, the “soluble on expression in E. coli” value was “not soluble”.
In the case of “MGSDKIHHHHHHMKQLVGIPESMLIPLIARAKEYENEKPIIKDALSKKIFDGLDDMYKNVTCDDMSQIGISIRTVIIDCVTKRLIKDNKDLIVVNIGCGLDTRFQRFNKEKISWIDLDVPESIEIRKTFFKESNSYKMISKSMLDYSWIDDVKNYKFFNSKSDILFIIEGVLMYFDESVMTQLLDTIIKKMGDHNLTFAIEFCSKTIANNTKRHQSVSKLSSQPVFKYGYNDLKKLNEILPNTIRVIHEYNYFDYYKNRWGLFGYCRFIPYLKKRLNNKIVLMKYKVPKRQRH”, the “soluble on expression in E. coli” value is reported as “not soluble”.
In the case of “MTSACGFHLRGDYLLPDEVHEISLTSFDQYSSLTRDVQKQLRMNGIRQVAPTTVTPSLDLISESLNERTLSLYQNSRAAEKELTYNVSYSVLIPGHDLKTYTTTVNRNYLDNPLTALAKSVERDMIEEEMRAQAAEQILRQMARLKADDAPVETSDVITHDDETESKVTTKEVIKSMSTTAETTQLEHHHHHH”, the “soluble on expression in E. coli” value is reported as “soluble”.
For “MGSDKIHHHHHHMDRIIYTAGSGASQAMQQQSVVNHNLSNVSTPGFRAELDAMRAVPVQGDGRLATRTSVAATTSGTDFSPGYMNATGRRLDVAMQGDAFLAIQDPQGGEAYTRRGDLQVDADGMLTVKGEPVMGEQGPIVVPPDAEFSIGADGSISVLEAGANPDEIAPVGRLKLVTPDLQALTRGDDGWFRLPPGDDAEIAAPQPLDEDARLQSGVLEGSNVSATDAMVAMIDGARRYDMQMKVIESADQNAQRANSLLSVQA”, the “soluble on expression in E. coli” value was “not soluble”.
With “MSLSLREVSQLLCQLKVLDQKITKVFEEQVGLSLTRYELLMILKERQPCLQTEIQEHLKIDSGAVTRHLKILEEKQYVTRQRNPENNREVLVHLTEKAQQELQQCTAKQQTVTEIIPSTFTKDDCRQLKELLTKLDQSITTKEV” the “soluble on expression in E. coli” value was “not soluble”.
In the case of “MVSLDKAVIARLRKGGEEFEVLVDPYLARDLKEGKEVNFEDLLAAEEVFKDAKKGERASVDELRKIFGTDDVFEIARKIILEGEVQITAEQRREMLEAKRKQIINFISRNTIDPRTNAPHPPSRIERALEEAKVHIDIFKSVEAQVKDIVKALKPILPLKFEEMEIAIKIPPEHTGRAISALYNFGGVTREEWQRDGSWICVMRIPSGMYGDLMDLLGKVAKGEALTKVLRRIG”, the “soluble on expression in E. coli” value is reported as “not soluble”.
With “MGSDKIHHHHHHMSIAPFLEAAGWAEATATPLAGDASSRRYTRLSRGAETAVLMQAPVATKADHASFDAFRKIGAHLRGQNLSAPKEYAADPTNGLILMEDLGDQTLARLLKDDAQTAQIAYNATANLLPHLKVHAPPHLAAPDARAMAQMVALTFDQLPDSAILRDTLLEALAEALTTHAPGAPTLSLRDVHAENLLWLPDRDGPARVGLLDFQDALLLPEGYDLASLLDDPRREVPEVWRADLIAAHSAPTRIAVLSLQRNLRILGIFRRLSTTLGKPAYGAFLPRTRTLIARAASDLPPMLAPVTELLDRTAHWTAP” the “soluble on expression in E. coli” value was “not soluble”.
In the case of “MEKQQDLPFPYEFRELNPEEDKLVKANLGAFPTTYVKLGPKGYMVYRPYLKDAANIYNMPLRPTDVFVASYQRSGTTMTQELVWLIENDLNFEAAKTYMSLRYIYLDGFMIYDPEKQEEYNDILPNPENLDMERYLGLLEYSSRPGSSLLAAVPPTEKRFVKTHLPLSLMPPNMLDTVKMVYLARDPRDVAVSSFHHARLLYLLNKQSNFKDFWEMFHRGLYTLTPYFEHVKEAWAKRHDPNMLFLFYEDYLKDLPGCIARIADFLGKKLSEEQIQRLCEHLNFEKFKNNGAVNMEDYREIGILADGEHFIRKGKAGCWRDYFDEEMTKQAEKWIKDNLKDTDLRYPNMEL”, the “soluble on expression in E. coli” value is reported as “soluble”.
